Test results taken from PMC11818005, “Elucidation of the key flavonol biosynthetic pathway in golden Camellia and its application in genetic modification of tomato fruit metabolism” (Horticulture Research, 2024).

What was measured:
Assay in all cases: UPLC-UV of flavonol product, initial kinetics
Conditions in all cases: 100 mM Tricine pH 7.5, 0.1 mM FeSO4, 10 mM ascorbate, 10 mM 2-oxoglutarate, 28°C
[1] = substrate: O=C1c2c(O)cc(O)cc2O[C@H](c2ccc(O)c(O)c2)[C@H]1O; type: biochemical, Arabidopsis thaliana
Source text: (§1) UPLC-UV of flavonol product, initial kinetics on AtFLS1

[2] = substrate: O=C1c2c(O)cc(O)cc2O[C@H](c2ccc(O)cc2)[C@H]1O; type: biochemical, Arabidopsis thaliana
Source text: as §1

[3] = substrate: O=C1c2c(O)cc(O)cc2O[C@H](c2ccc(O)c(O)c2)[C@H]1O; type: biochemical, Camellia nitidissima
Source text: (§2) UPLC-UV of flavonol product, initial kinetics on CnFLS1

[4] = substrate: O=C1c2c(O)cc(O)cc2O[C@H](c2ccc(O)cc2)[C@H]1O; type: biochemical, Camellia nitidissima
Source text: as §2

B1: AtFLS1 (Arabidopsis thaliana) (protein)
chain: MEVERVQDISSSSLLTEAIPLEFIRSEKEQPAITTFRGPTPAIPVVDLSDPDEESVRRAVVKASEEWGLFQVVNHGIPTELIRRLQDVGRKFFELPSSEKESVAKPEDSKDIEGYGTKLQKDPEGKKAWVDHLFHRIWPPSCVNYRFWPKNPPEYREVNEEYAVHVKKLSETLLGILSDGLGLKRDALKEGLGGEMAEYMMKINYYPPCPRPDLALGVPAHTDLSGITLLVPNEVPGLQVFKDDHWFDAEYIPSAVIVHIGDQILRLSNGRYKNVLHRTTVDKEKTRMSWPVFLEPPREKIVGPLPELTGDDNPPKFKPFAFKDYSYRKLNKLPLD
notes: cloned for comparison with CnFLS1 (pET28b, E. coli Rosetta (DE3), Ni-NTA purified)
Km [1]: 29.89 µM | kcat [1]: 0.02 s⁻¹ | kcat/Km [1]: 794 M⁻¹ s⁻¹ | Km [2]: 95.01 µM | kcat [2]: 0.11 s⁻¹ | kcat/Km [2]: 1180 M⁻¹ s⁻¹

B2: CnFLS1 (Camellia nitidissima) (protein)
chain: MELERVQVIASLSKCIDTIPAEYIRSENEQPAITTIQGKVLEVPVIDLSNDSDDQNIVQMVAEACRDWGIFQVVNHGIPDEVIGNLQRVGKDFFELPQEEKEVYAKPPESKSVEGYGTKLQKEVEGKKGWVDHLFHKIWPPSAINYKFWPKNPPSYREANEVYAERLRAVADKLFRWLSLGLGLEGHEVKEAVGGDDLIYLMKINYYPPCPRPDLALGVVAHTDMSTLTILVPNEVPGLQVFKDDHWYEVKYIPNALIVHIGDQIEIVSNGKYKAVFHRSTVNKETTRMSWPVFIEPSPEVEVGPHPKLIDDENPPKYKTKKYEDYMYCKLNKLPQ
Km [3]: 18.68 µM | kcat [3]: 0.02 s⁻¹ | kcat/Km [3]: 1320 M⁻¹ s⁻¹ | Km [4]: 60.63 µM | kcat [4]: 0.08 s⁻¹ | kcat/Km [4]: 1300 M⁻¹ s⁻¹
